{"source": "patent US20250043290A1", "about": "“RNA SEQUENCES THAT INDUCE FLUORESCENCE OF SMALL MOLECULE FLUOROPHORES, MOLECULAR COMPLEXES, SENSORS, AND METHODS OF USE THEREOF” (CORNELL UNIVERSITY, priority 2021, published 2025)", "molecules": {"B1": {"name": "Squash: fluorogenic RNA aptamer evolved from the add A-riboswitch aptamer, binds DFHBI-1T and DFHO; SEQ ID NO: 12 (SEQ ID NO: 1) (nucleic acid)", "chain": "AGGUGAGCCCAAUAAUACGGUUUGGGUUAGGAUAGGAAGUAGAGCCGUAAACUCUCUAAGCG", "modifications": "RNA, backbone not given here"}}, "key": {"[1]": {"assay": "Fluorescence activation of DFHBI-1T by aptamers in vitro", "type": "biochemical", "source_text": "FIG. 1A is a schematic illustrating the strategy for evolution of the add A-riboswitch aptamer. Indicated are helices P1-P3, junctional strands (J1/2, J2/3, J3/1), kissing loop (gray lines), and adenine interactions with the aptamer (dotted line) (5′-CUUCAUAUAAUCCUAAUGAUAUGGUUUGGGAGUUUCUACCAAGAGCCUUAAACUCUUGAUUAUGAAG-3′ (SEQ ID NO:36)). The chemical structure of adenine and fluorophores are shown. Three regions (Region 1: 5′-UAU AAU-3′ (SEQ ID NO:37)), Region 2: 5′-AGU UUC UAC C-3′ (SEQ ID NO:38); Region 3: 5′-GAU UAU-3′ SEQ ID NO:39), which include J1/2, J2/3, and J3/1 were randomized in both size and sequence resulting in a sprouts/clips library for SELEX. Each nucleotide in the colored regions was replaced using a combination of random stochastic deletion (designated “N”) and random stochastic insertion (designated “n”). FIG. 1B is schematic showing a three dimensional structure of the add A-riboswitch aptamer highlighting the adenine-binding pocket (PDB 1Y26). The mutagenized regions are shown in the same color as FIG. 1A. Adenine is indicated by the arrow. FIG. 1C is a schematic illustrating the evolution of the add A-riboswitch aptamer into Squash, a DFHBI-1T-binding aptamer. The sprouts/clips library was selected for binding to DFHBI-conjugated agarose resulting in aptamer 9-1. Aptamer 9-1 was subjected to two consecutive rounds of directed evolution generating DE2-6. A pair of mutations was introduced in DE2-6 to strengthen the kissing loop interaction resulting in Squash. FIG. 1D is a graph showing fluorescence activation of DFHBI-1T by different aptamer intermediates that led to Squash. The values inside the bars indicate fold-activation of DFHBI-1T fluorescence by the corresponding aptamer. Data represent mean values±s.d. for n=3 independent experiments. […]\nFIG. 6A is a bar graph showing fluorescence activation of DFHO by Squash and its precursors. Fluorescence was measured with 200 nM dye and 10 μM RNA (ex: 495 nm, em: 562 nm, except for Corn; ex: 505 nm, em: 545 nm). […] FIG. 6B is a bar graph showing fluorescence of initial hits after Round 7 of SELEX. In vitro transcribed RNAs from each hit (1 μM final) were mixed with DFHBI-1T (10 μM final) and the fluorescence was measured (ex: 452 nm, em: 503 nm, except for Broccoli; ex: 472 nm, em: 507 nm). […] FIGS. 6C-6D are bar graphs showing fluorescence measurements of the hits with DFHBI-1T after first (FIG. 6C) and second (FIG. 6D) round of directed evolution, measured as in FIG. 6B. […] FIG. 6E is a bar graph showing fluorescence measurements of hits using DFHO after the second round of directed evolution measured as in FIG. 6A. The fluorescence of the hits were normalized against Corn. […] FIG. 6F is a graph showing normalized fluorescence. […] Fluorescence was measured as in FIG. 6A. […]"}, "[2]": {"assay": "Kd measurements for Broccoli and Squash binding to BI", "settings": "50 nM RNA", "method": "FIGS. 7A-7H provide photophysical and biophysical characterization of Squash. […] Excess RNA was used to ensure binding of nearly all fluorophore. […] Data represent mean values±s.d. for n=3 independent experiments. […] The fluorescence signal trace was fitted with a monoexponential curve to extract kobs. kobs was plotted as a function of total RNA (50 nM RNA) and fluorophore concentration. kon and koff were extracted as the slope and intercept, respectively. Squash koff (0.014±0.008 s^−1) is very similar to that of Corn (0.018±0.002 s^−1). kon for Squash-DFHO (162300±8100 M^−1 s^−1) is seven-times higher than Corn-DFHO (23000±3000 M^−1 s^−1) which could be due to the high folding of Squash. […]\nDissociation constants (Kd) for the RNA-fluorophore complexes were determined as described previously (Paige et al., “RNA Mimics of Green Fluorescent Protein,” Science 333:642-646 (2011) and Filonov et al., “Broccoli: Rapid Selection of an RNA Mimic of Green Fluorescent Protein by Fluorescence-Based Selection and Directed Evolution,” J. Am. Chem. Soc. 136: 16299-16308 (2014), which are hereby incorporated by reference in their entirety). In brief, the RNA aptamer at a fixed concentration (50 nM) was titrated with increasing fluorophore concentration and the resulting increase in fluorescence was recorded. […]"}}, "data": [{"molecule": "B1", "values": [{"measurement": "Fold activation of DFHBI-1T fluorescence", "setting": "[1]", "result": 1064, "unit": "fold"}, {"measurement": "Affinity for BI", "setting": "[2]", "result": "much weaker affinity than Broccoli"}]}]}
